Measurements taken from patent US20140179593A1 (published 2014).
Positions of bridges follow the written chain, without caps; N, C: chain ends. Non-standard residues stand in square brackets, D forms with d. S5 = C=CCCC[C@](C)(N)C(=O)O

Key:
[1] = target: T1, hE1 for Nedd8 (APPBP1-UBA3, NAE1-UBA3) (Homo sapiens, UniProt Q13564 18-534; Q8TBC4 22-463, limits assumed); experiment: not named in the sentence (ITC in Table 25)
T1 construct: Heterodimer of NAE1 and UBA3, expressed in E. coli as described previously
T1 sequence 1: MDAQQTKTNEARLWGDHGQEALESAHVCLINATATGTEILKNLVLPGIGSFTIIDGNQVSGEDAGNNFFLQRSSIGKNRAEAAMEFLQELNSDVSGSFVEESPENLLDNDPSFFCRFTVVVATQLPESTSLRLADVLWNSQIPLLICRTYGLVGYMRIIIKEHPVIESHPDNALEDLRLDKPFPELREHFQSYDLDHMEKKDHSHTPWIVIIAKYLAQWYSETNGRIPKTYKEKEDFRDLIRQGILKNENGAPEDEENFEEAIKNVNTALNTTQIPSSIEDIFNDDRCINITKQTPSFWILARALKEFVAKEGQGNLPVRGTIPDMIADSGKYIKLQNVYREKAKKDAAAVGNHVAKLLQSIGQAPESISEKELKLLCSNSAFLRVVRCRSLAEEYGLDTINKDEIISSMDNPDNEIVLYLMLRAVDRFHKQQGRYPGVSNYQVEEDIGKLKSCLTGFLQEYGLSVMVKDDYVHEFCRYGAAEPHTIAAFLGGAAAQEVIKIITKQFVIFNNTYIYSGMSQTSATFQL
T1 sequence 2: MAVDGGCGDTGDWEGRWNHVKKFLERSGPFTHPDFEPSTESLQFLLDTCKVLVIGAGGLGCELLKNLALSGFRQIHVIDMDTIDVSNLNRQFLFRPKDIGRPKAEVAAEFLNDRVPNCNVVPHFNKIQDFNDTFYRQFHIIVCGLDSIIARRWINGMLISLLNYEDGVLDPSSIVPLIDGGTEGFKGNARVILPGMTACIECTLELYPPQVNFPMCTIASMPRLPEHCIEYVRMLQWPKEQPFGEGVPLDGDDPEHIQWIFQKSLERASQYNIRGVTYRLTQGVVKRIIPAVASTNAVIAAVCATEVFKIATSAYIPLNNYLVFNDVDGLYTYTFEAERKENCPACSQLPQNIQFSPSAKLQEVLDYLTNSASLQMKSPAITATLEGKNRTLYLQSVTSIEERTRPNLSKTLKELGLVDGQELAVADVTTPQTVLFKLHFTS
Procedure: (§1) Specifically, Phe5 and Gln9 were replaced with (S)-2-(4′-pentenyl) alanine and these side-chains were covalently linked to test the effect of “stapling” an acetylated Ubc12 peptide into a helix (Bird et al. (2008) Methods Enzymol 446:369-386).
(§2) Protein samples were buffer matched by desalting over a NAP-5 column (GE Healthcare) into 50 mM Hepes, 125 mM NaCl, 1 mM BME, pH 7.0 (ITC buffer). Peptides were dissolved by weight to a final concentration of 10 mM in ITC buffer and diluted further in ITC buffer as required for the experiments. […] The peptide ligands (4 mM) were constantly injected (1.5 μl). The interval time between each injection was 3 minutes and the duration of each injection was 3 seconds. […] Peptide ligands (250 μM) were constantly injected (2.5 μl). The interval time between each injection was three minutes and the duration of each injection was 5 seconds. […] The interval time between each injection was 3 minutes and the duration of each injection was 5 seconds. Obtained spectra were evaluated using Origin (V 7.0) to determine heats of binding and Kd values.

[2] = target: T2, hDcn1^P (residues 62 to the C-terminal residue 259 of hDcn1, aka SCCRO or DCUN1D1) (Homo sapiens, UniProt Q96GG9 62-259); experiment: ITC; against Acetyl-hUbc12^1-12
T2 construct: Expressed as a GST fusion in E. coli; GST released by TEV protease; also called DCUN1D1^P; PONY domain of hDcn1
Procedure: as §1, §2

T2 sequence (Q96GG9 62-259): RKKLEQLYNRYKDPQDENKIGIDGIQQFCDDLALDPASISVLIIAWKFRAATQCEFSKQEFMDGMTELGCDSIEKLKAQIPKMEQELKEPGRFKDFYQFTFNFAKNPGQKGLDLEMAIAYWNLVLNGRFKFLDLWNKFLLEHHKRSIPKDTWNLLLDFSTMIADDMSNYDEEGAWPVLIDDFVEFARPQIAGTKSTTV

B1: Acetyl-hUbc12^1-12(5:9Staple) (peptide)
peptide: Ac-MIKL[S5]SLK[S5]QKK-NH2
modifications: staple 5-9
notes: Printed Ac-MIKLXSLKXQKK-NH2, X = 2-(4-pentenyl)alanine; also called stapled helical peptide
[1]
  binding result: no binding
[2]
  fold improvement of binding over the unstapled peptide: 14 fold
